Measured values taken from paper PMC2113854.

Assays:
[1] = target: EGF/TGF-alpha receptor of normal rat kidney (NRK) cells (170-kD receptor species) (rat (endogenous in NRK)); assay: radioligand binding
[2] = target: EGF/TGF-alpha receptor of A431 cells (human (endogenous in A431)) (UniProt P00533); assay: radioligand binding

With “125I-labeled mouse submaxillary gland epidermal growth factor (125I-EGF) (ligand)” the specific binding at 0.3 nM ligand, monolayers not treated with TGF-beta (Fig. 2) [1] was 785 cpm/well.

With “125I-labeled transforming growth factor-alpha (125I-TGF-alpha) (from UniProt P01134 39-88) (ligand)” the 125I-TGF-alpha bound with 66 nM TGF-beta (NRK membranes) (fmol/mg protein) [1] was 5.6, the 125I-TGF-alpha bound with 330 nM TGF-beta (NRK membranes) (fmol/mg protein) [1] was 5.6 and the 125I-TGF-alpha bound, no competing ligand (NRK membranes) (fmol/mg protein) [1] was 5.4. For the same substance, the Kd, high-affinity sites [1] was 0.2 to 0.3 nM, the Kd, low-affinity sites [1] was 2.7 to 2.9 nM and the specific binding at 0.3 nM ligand, cells not treated with TGF-beta (Fig. 1A) [1] was 810 cpm/well.

Work on “mouse submaxillary gland epidermal growth factor (native, unlabeled EGF) (ligand)” yielded a 125I-TGF-alpha bound with 66 nM EGF (A431 membranes) (fmol/mg protein) [2] of 140 and a 125I-TGF-alpha bound with 66 nM EGF (NRK membranes) (fmol/mg protein) [1] of 1.6.

Work on “transforming growth factor-alpha (native, unlabeled TGF-alpha) (from UniProt P01134 39-88) (ligand)” yielded a 125I-TGF-alpha bound with 66 nM TGF-alpha (NRK membranes) (fmol/mg protein) [1] of 1.2.
